Reference: patent US9168297B2, “Regulation of skin pigmentation by neuregulin-1 (NRG-1)” (The United States of America, as Represented by the …, priority 2010, dated 2015)

Tests used:
[1] = test system: MelanoDerm 3-D reconstructed human skin; assay: Pigmentation of 3-D reconstructed skin (MelanoDerm), L value and microscopy; assay type: cell-based; conditions: for ΔL (pigmentation, L value): day 9, vs vehicle
Procedure: Light, Medium, and Dark human epidermal equivalents (MelanoDerm®) were purchased from MatTek Corp. (Ashland, Mass.). MelanoDerms were grown at the air/liquid interface of the maintenance medium MEL-LLMM (MatTek Corp.), and the culture medium was renewed every 2 days. Where noted, MelanoDerms were treated for 9 days with 50 ng/ml NRG-1 (rhNRG-1-β1, R&D Systems, Minneapolis, Minn.) prepared in phosphate-buffered saline (PBS) with 0.1% bovine serum albumin (BSA) and MelanoDerm maintenance medium. The same concentrations of PBS and BSA were used for mock-treated controls.
For the studies where the MelanoDerms were treated with NRG-1 and/or various pan-ERBB inhibitors, Dark MelanoDerms were first incubated with a pan-ERBB inhibitor (0.5 μM Compound 39, EMD Chemicals, Gibbistown, N.J. or 2 μM CI-1033, Selleck Chemicals LLC, US) for 30 minutes or with vehicle (DMSO) only before treatment with 50 ng/ml NRG-1; identical amounts of DMSO (0.02%) were added to all samples. Treatment was renewed every 2 days in fresh medium and was continued for 9 days.
Three dimensional (3-D) reconstructed human skin models (termed MelanoDerms) were used to test the effects of NRG-1 on skin pigmentation. Three types of MelanoDerm, ‘light’ ([…]), ‘medium’ ([…]) and ‘dark’ ([…]), were used to compare the effects of NRG-1 on those three types of skin. In preliminary studies to optimize the concentration of NRG-1 (from 10 to 200 ng/ml were tested, FIG. 10), 50 ng/ml was chosen which was consistent with concentrations of NRG-1 used for other cell types by other groups. NRG-1 was added to the MelanoDerm media at 50 ng/ml and the medium was replenished every 2 days. On day 9, the MelanoDerms treated with NRG-1 were compared to controls treated only with vehicle. Pigmentation of the skin was assessed using the L value, higher L values indicating lighter colors. […] It should be noted that relatively small changes in ΔL can represent relatively large changes in visible skin color. For example, the mean L value of White/Caucasian skin is 67, that of Asians, Pacific-Islanders is 65, that of Hispanic/Latinos is 64, and that of American Indian/Alaska Native is 62. […] In the vehicle-treated control MelanoDerms, melanin pigment was more evenly distributed throughout the entire epidermis and no visible melanin accumulation was observed around melanocytes (FIG. 3B). […] Therefore, NRG-1 leads to visible increases in pigmentation in the MelanoDerms which was greater as the skin had more constitutive pigmentation.

phospho-Akt (Ser473) = assay: Phosphorylated-Akt levels by western blotting in melanocytes; assay type: cell-based, human; conditions: NRG-1 50 ng/ml
Procedure: FIGS. 5A-5D illustrate the effect of NRG-1 on the proliferation of human melanocytes in culture. FIG. 5A) Lightly-pigmented (HEM-LP) and FIG. 5B) darkly-pigmented (HEM-DP) melanocytes were treated with or without NRG-1 (50 ng/ml) for 1, 3, 5 or 9 days in 10 cm culture dishes and total cell numbers were counted. Results are the averages of three studies±SD. FIG. 5C) Phosphorylated-Akt levels were detected by western blotting for HEM-LP and HEM-DP melanocytes treated with NRG-1 (50 ng/ml) for 5 days compared to vehicle treated controls; GAPDH is used as a loading control. FIG. 5D) HEM-DP melanocytes were treated with NRG-1 (50 ng/ml) for 1, 3 or 5 days and p-Akt levels were detected by western blotting compared to vehicle treated controls; GAPDH is used as a loading control. Results shown are representative of three studies; statistically significant differences are indicated.
Fibroblast cultures in 100-mm dishes were solubilized in appropriate volumes of M-PER mammalian protein extraction reagent (Pierce Biotechnology, Rockford, Ill.) containing a Protease Inhibitor mixture (Roche, Mannheim, Germany) and phosphatase inhibitors. The protein concentration of each extract was measured using a BCA protein assay kit (Pierce, Rockford, Ill.). Cell extracts (20 μg) were separated on 8-16% gradient SDS polyacrylamide gels (Invitrogen, Carlsbad, Calif.), after which proteins were transferred to PVDF membranes (Invitrogen, Carlsbad, Calif.). Membranes were blocked for 1 hour in PBS or Tris buffered saline (TBS) containing 0.1% Tween 20 and 5% (w/v) nonfat dry milk powder and were incubated overnight at 4° C. with the primary antibody in PBS containing 0.1% Tween 20 and 2.5% (w/v) nonfat dry milk powder or in 0.1% Tween-TBS with 5% BSA, depending on the antibody. The following primary antibodies were used: anti-human DKK-1 (0.2 μg/ml), anti-human DKK-3 (0.1 μg/ml), anti-human bFGF (0.1 μg/ml), anti-human SCF (0.1 μg/ml), anti-human mouse monoclonal ERBB3 (1 μg/ml) and anti-human mouse monoclonal ERBB4 (2 μg/ml) antibodies from R&D Systems, neuregulin-1α/β1/2 (C-20) (1:500) and GAPDH (FL-335) (1:10,000) antibodies from Santa Cruz Biotechnology, ERBB2 rabbit monoclonal (1:1000) and phospho-Akt (Ser473) (1:1000) antibodies from Cell Signaling Technology. Membranes were then incubated with an HRP-linked anti-rabbit antibody (GE Healthcare) at 1:10,000 dilution or with an anti-goat antibody (DAKO) at 1:2,000 dilution at room temperature for 1 hour. Antigen-antibody complexes were detected using an ECL-plus Western blotting detection system (GE Healthcare). Each study was performed at least in triplicate. […]

B1: NRG-1: commercially available recombinant human neuregulin-1 (rhNRG-1-β1, R&D Systems), SEQ ID NO: 11 (protein)
chain: TSHLVKCAEKEKTFCVNGGECFMVKDLSNPSRYLCKCPNEFTGDRCQNYVMASFYKHLGIEFMEAEELYQK
[1]; MelanoDerm, NRG-1
  Melanocyte growth in MelanoDerm skin model: did not increase melanocyte growth
[1]; MelanoDerms, NRG-1 50 ng/ml, vs vehicle-treated control
  Melanocyte morphology, bright field microscopy: more abundant cytoplasm with thicker dendrites
[1]; dark MelanoDerms, NRG-1 50 ng/ml
  ΔL (pigmentation, L value): −3
[1]; light MelanoDerms, NRG-1 50 ng/ml
  ΔL (pigmentation, L value): −1
[1]; medium MelanoDerms (Asian skin), NRG-1 50 ng/ml
  ΔL (pigmentation, L value): −2
phospho-Akt (Ser473); HEM-DP, day 1, low confluency, vs control
  Levels of p-Akt: equally high
phospho-Akt (Ser473); HEM-DP, day 3 through day 5, control decreased by day 3
  Levels of p-Akt, time course: maintained higher levels of p-Akt through day 5
phospho-Akt (Ser473); HEM-DP, day 5, vs control
  Levels of p-Akt: significantly higher
phospho-Akt (Ser473); HEM-LP, day 5, vs control
  Levels of p-Akt: significantly higher
